For assay [1], the target named is T1, recombinant human ROR1 (full-length extracellular domain) (human, UniProt Q01973 30-406).
T1 construct: extracellular domain; Bought protein; also called human ROR1 protein; full extracellular domain
The assay is described as follows: ELISA, ROR1 coated on the plate, Fab detected with HRP anti-FLAG antibody. As to the method:
The hexahistidine-tagged Fabs 2H3 and 3A3 were expressed in E. coli strain HB2151 and purified from the soluble fraction of periplasm by using the Ni-NTA resin. Then ELISA was performed by using standard protocols to measure binding affinity to recombinant human ROR1 (full-length extracellular domain). Briefly, the recombinant human ROR1 (ACROBiosystems) was coated on Corning EIA/RIA high-binding 96-well plates (Corning Inc.) at 50 ng per well overnight at 4° C. and blocked with 3% nonfat milk in PBS (pH7.4). Fivefold serially diluted antibodies were added and incubated at room temperature for 2 h. The plates were washed with PBS containing 0.05% Tween 20. Bound antibodies were detected by HRP-conjugated anti-FLAG tag antibody (Sino Biological). The assay was developed at room temperature with TMB substrate (Solarbio) and OD value was measured at 450 nm with a microplate reader.

The target in assay [2] is T1, recombinant human ROR1 (full-length …). The assay is described as follows: ELISA, antigen coated on the plate, biotinylated antibody detected with HRP streptavidin. As to the method: (§1) ELISA was performed according to standard protocols, to determine binding affinity of anti-ROR1 mAB 2H3 and 3A3 to full extracellular domain and individual extracellular Ig-like domain, frizzled domain, and kringle domain of human ROR1. Briefly, recombinant human ROR1 (AcroBiosystems) were coated on Corning EIA/RIA high-binding 96-well plates (Corning Inc.) at 50 ng per well overnight at 4° C. and blocked with 3% nonfat milk in PBS (pH7.4). Fivefold serially diluted biotinylated antibodies were added and incubated at room temperature for 2 h. The plates were washed with PBS containing 0.05% Tween 20. Bound antibodies were detected by HRP-conjugated streptavidin (Sino Biological). The assay was developed at room temperature with TMB substrate (Solarbio) and monitored at 450 nm with a microplate reader. The half-maximal binding (EC₅₀) was calculated by fitting the data to the Langmuir adsorption isotherm.
(In an ELISA, binding on a coated surface is turned into a signal by an enzyme label.)

The target of assay [3] is T2, human/Cynomolgus/Rhesus macaque ROR1 (308-395, Kringle domain) protein (human/Cynomolgus/Rhesus macaque, UniProt Q01973 308-395).
T2 construct: range 308-395; Bought protein; also called kringle domain of ROR1
T2 sequence (Q01973 308-395 limits assumed, form in doubt): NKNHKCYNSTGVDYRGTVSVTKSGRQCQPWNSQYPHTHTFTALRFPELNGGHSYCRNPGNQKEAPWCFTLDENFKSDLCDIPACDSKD
The description is as above. As for the experimental part:
as §1

For assay [4], the target named is T3, human ROR1 (39-151, Ig-like domain) protein (human, UniProt Q01973 39-151).
T3 construct: range 39-151; Bought protein; also called Ig-like domain of ROR1
T3 sequence (Q01973 39-151 limits assumed, form in doubt): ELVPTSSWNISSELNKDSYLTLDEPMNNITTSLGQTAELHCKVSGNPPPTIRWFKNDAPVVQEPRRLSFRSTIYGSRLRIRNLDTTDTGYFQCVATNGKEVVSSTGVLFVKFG
Described as above. As for the experimental part:
as §1

T1 sequence (Q01973 30-406): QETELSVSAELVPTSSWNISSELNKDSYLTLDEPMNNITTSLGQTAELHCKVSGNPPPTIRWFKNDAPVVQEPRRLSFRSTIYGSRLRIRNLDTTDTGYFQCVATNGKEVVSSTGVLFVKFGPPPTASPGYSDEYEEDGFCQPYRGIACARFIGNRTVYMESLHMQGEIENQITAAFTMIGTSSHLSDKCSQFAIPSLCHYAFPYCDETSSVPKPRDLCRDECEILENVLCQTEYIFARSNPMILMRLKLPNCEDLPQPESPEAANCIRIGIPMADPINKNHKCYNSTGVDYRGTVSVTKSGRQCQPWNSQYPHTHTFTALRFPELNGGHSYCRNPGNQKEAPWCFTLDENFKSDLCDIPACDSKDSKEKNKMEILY

B1: anti-ROR1 2H3 Fab (Fab, V domains shown)
VH: QVQLVQSGAEVKKTGSSVKVSCKASGYTFTYRYLHWVRQAPGQALEWMGWITPFNGNTNYAQKFQDRVTITRDRSMSTAYMELSSLRSEDTAMYYCARSGPRGDYVLDYWGQGTLVTVSS
VL: EIVLTQSPATLSLSPGERATLSCRASQSVSSYLAWYQQKPGQAPRLLIYDASNRATGIPARFSGSGSGTDFTLTISSLEPEDFAVYYCQQRSNWPLTFGGGTKVEIK
notes: Human Fab from a phage library, kappa light chain, hexahistidine-tagged, expressed in E. coli HB2151; also called Fab clone 2H3
With B1, the EC50 in assay [1] is ~16 nM.

B2: anti-ROR1 monoclonal antibody 2H3 (antibody, V domains shown)
VH: QVQLVQSGAEVKKTGSSVKVSCKASGYTFTYRYLHWVRQAPGQALEWMGWITPFNGNTNYAQKFQDRVTITRDRSMSTAYMELSSLRSEDTAMYYCARSGPRGDYVLDYWGQGTLVTVSS
VL: EIVLTQSPATLSLSPGERATLSCRASQSVSSYLAWYQQKPGQAPRLLIYDASNRATGIPARFSGSGSGTDFTLTISSLEPEDFAVYYCQQRSNWPLTFGGGTKVEIKR
notes: Intact human IgG1 kappa (Fd of the Fab fused to human IgG1 Fc), about 150 kDa non-reduced; also called 2H3 mAb; 2H3 Mab
With B2, the EC50 amounted to 0.2 nM in assay [2] and 1.2 nM in assay [3].

B3: anti-ROR1 3A3 Fab (Fab, V domains shown)
VH: EVQLVESGGGVVQPGRSLRLSCAASGFTFSSYGMHWVRQAPGKGLEWVAVISYDGSNKYYADSVKGRFTISRDNSKNTLYLQMNSLRAEDTAVYYCAKDLDYSLWFDPWGQGTLVTVSS
VL: DVVMTQSPLSLPVTPGEPASISCRSSQSLLQSNGYNYVEWFLQKPGQSPQLLIYLGSYRASGVPDRFSGSGSGTDFTLKISRVEAEDVGVYYCMQGTHWPLFTFGPGTKVDIK
notes: Human Fab from a phage library, kappa light chain, hexahistidine-tagged, expressed in E. coli HB2151; detected with an anti-FLAG antibody; also called Fab clone 3A3
Take B3: the EC50 in assay [1] was ~36 nM.

B4: anti-ROR1 monoclonal antibody 3A3 (antibody, V domains shown)
VH: EVQLVESGGGVVQPGRSLRLSCAASGFTFSSYGMHWVRQAPGKGLEWVAVISYDGSNKYYADSVKGRFTISRDNSKNTLYLQMNSLRAEDTAVYYCAKDLDYSLWFDPWGQGTLVTVSS
VL: DVVMTQSPLSLPVTPGEPASISCRSSQSLLQSNGYNYVEWFLQKPGQSPQLLIYLGSYRASGVPDRFSGSGSGTDFTLKISRVEAEDVGVYYCMQGTHWPLFTFGPGTKVDIKR
notes: Intact human IgG1 kappa (Fd of the Fab fused to human IgG1 Fc), about 150 kDa non-reduced; also called 3A3 mAb; 3A3 Mab
In the case of B4, the EC50 in assay [2] was 0.18 nM; in assay [4], 3.1 nM.

A word on the EC50: it is the concentration giving half of the maximal effect.

Source of the values: patent US20240309116A1 (ZHEJIANG SHIMAI PHARMACEUTICAL, published 2024).
